Laboratory results from patent US20080193444A1.

Tests used:
Assay in all cases: cell-based or functional assay
[1] = target: αv integrin subunit (rat hippocampus) (rat)
[2] = target: β1 integrin (human) (UniProt P05556)
[3] = target: α2 integrin (human) (UniProt P17301)
[4] = target: α6 integrin (human) (UniProt P23229)
[5] = target: α2β1 integrin (human) (UniProt P17301)
[6] = target: α5 integrin (human) (UniProt P08648)
[7] = target: αvβ1 integrin (human) (UniProt P06756)
[8] = target: α1 integrin (human) (UniProt P56199)
[9] = target: α9 integrin (human) (UniProt Q13797)
Chain of UniProt Q13797 (Q13797 30-1035): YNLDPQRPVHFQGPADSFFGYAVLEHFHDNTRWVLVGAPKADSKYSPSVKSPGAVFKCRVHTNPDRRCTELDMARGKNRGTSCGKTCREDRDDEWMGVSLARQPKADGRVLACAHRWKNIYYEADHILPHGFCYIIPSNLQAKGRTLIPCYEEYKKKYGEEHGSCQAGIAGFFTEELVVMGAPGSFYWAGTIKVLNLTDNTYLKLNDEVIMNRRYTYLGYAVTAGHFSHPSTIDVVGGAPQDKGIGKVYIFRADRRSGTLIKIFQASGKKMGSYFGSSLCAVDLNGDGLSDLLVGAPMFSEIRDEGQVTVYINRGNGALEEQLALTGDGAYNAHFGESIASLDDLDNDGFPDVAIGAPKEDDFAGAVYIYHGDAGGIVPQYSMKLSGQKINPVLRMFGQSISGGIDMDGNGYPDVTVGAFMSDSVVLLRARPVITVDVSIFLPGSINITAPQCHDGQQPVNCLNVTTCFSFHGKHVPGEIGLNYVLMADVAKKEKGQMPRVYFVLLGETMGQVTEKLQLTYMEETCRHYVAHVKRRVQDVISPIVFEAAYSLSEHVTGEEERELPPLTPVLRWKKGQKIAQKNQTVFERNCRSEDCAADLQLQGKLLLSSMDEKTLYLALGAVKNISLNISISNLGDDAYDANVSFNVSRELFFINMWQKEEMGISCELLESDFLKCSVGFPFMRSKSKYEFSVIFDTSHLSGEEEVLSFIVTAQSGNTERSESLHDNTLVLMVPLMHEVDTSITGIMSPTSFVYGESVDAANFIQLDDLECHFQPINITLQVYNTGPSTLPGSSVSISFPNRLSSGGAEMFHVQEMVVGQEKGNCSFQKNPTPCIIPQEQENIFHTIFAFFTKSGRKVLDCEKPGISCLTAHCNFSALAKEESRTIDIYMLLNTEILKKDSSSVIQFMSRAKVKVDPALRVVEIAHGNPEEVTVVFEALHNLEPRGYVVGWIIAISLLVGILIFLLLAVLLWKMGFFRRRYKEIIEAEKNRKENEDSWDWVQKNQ

Chain of UniProt P05556 (P05556 21-798): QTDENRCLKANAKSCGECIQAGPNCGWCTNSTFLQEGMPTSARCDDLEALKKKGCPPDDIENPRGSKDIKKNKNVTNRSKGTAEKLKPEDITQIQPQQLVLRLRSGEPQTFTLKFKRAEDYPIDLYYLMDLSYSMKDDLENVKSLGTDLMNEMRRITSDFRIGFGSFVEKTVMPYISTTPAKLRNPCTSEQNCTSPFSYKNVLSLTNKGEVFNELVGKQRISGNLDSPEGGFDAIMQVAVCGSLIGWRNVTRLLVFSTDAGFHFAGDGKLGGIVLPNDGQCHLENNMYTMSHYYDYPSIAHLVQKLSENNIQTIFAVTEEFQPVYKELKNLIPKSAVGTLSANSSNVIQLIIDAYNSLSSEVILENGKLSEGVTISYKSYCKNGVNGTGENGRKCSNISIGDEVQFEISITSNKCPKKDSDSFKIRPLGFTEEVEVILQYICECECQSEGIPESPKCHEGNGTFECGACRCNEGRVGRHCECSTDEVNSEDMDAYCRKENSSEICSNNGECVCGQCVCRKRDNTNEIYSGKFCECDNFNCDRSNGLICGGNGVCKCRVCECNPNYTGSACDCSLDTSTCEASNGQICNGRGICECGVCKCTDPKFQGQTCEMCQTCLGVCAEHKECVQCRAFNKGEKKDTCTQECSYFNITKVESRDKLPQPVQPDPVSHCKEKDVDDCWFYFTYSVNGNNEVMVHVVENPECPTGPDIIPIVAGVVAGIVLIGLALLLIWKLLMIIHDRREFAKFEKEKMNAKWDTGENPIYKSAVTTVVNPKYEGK
Chain of UniProt P08648 (P08648 42-1049): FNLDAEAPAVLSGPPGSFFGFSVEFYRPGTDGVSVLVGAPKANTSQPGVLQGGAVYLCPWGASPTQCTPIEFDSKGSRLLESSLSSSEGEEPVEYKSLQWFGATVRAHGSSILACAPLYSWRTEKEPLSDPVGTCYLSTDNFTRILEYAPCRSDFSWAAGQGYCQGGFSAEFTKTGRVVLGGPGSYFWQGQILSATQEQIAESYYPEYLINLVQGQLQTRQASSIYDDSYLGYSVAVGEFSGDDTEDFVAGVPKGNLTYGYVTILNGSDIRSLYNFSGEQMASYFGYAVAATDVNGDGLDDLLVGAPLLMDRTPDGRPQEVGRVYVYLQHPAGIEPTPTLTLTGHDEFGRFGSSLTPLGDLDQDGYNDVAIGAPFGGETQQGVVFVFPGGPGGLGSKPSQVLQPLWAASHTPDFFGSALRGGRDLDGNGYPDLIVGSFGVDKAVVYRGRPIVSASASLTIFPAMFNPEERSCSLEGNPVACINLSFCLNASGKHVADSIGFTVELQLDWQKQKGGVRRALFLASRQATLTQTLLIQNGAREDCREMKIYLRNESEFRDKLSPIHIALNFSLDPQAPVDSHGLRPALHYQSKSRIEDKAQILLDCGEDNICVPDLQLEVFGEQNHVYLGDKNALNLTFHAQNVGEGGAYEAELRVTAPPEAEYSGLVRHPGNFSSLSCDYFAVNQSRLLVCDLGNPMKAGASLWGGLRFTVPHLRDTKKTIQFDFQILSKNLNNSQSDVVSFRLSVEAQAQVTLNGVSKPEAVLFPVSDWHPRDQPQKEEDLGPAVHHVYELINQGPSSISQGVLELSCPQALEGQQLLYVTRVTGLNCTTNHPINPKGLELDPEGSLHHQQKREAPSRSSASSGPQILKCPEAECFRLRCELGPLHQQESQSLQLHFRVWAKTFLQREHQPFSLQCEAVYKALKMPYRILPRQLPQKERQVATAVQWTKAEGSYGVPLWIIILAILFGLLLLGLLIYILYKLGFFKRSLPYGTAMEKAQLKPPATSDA
Chain of UniProt P56199 (P56199 29-1179): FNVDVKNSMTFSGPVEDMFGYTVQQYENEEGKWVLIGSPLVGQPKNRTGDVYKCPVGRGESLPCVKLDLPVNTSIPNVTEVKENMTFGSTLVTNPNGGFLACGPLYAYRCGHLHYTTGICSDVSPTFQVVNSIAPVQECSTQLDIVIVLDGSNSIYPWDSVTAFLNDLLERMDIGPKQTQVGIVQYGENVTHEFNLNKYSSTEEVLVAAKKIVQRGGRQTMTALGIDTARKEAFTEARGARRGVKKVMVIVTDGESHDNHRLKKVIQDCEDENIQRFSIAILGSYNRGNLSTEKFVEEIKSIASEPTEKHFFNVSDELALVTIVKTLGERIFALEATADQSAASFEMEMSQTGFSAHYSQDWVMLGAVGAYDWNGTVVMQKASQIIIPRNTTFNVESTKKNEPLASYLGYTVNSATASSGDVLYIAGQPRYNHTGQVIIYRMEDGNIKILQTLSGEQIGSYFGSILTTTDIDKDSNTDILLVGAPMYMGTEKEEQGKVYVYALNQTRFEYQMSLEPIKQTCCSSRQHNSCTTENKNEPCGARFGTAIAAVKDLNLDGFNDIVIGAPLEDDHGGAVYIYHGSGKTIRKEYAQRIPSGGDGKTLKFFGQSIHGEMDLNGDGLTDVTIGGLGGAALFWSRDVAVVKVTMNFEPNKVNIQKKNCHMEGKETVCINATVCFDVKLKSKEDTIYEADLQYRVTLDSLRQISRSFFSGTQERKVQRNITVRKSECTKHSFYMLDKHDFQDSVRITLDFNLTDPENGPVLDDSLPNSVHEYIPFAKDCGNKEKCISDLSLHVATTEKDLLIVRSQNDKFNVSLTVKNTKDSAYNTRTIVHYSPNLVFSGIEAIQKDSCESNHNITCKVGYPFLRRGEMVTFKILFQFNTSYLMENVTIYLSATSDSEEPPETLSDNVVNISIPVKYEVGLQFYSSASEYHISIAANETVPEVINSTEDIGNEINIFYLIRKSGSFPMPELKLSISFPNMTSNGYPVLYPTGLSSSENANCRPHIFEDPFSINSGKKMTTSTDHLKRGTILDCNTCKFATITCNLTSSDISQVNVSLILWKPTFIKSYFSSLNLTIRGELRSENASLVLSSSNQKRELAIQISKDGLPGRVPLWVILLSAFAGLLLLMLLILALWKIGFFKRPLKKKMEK
Chain of UniProt P06756 (P06756 31-1048, chain 1 of 2): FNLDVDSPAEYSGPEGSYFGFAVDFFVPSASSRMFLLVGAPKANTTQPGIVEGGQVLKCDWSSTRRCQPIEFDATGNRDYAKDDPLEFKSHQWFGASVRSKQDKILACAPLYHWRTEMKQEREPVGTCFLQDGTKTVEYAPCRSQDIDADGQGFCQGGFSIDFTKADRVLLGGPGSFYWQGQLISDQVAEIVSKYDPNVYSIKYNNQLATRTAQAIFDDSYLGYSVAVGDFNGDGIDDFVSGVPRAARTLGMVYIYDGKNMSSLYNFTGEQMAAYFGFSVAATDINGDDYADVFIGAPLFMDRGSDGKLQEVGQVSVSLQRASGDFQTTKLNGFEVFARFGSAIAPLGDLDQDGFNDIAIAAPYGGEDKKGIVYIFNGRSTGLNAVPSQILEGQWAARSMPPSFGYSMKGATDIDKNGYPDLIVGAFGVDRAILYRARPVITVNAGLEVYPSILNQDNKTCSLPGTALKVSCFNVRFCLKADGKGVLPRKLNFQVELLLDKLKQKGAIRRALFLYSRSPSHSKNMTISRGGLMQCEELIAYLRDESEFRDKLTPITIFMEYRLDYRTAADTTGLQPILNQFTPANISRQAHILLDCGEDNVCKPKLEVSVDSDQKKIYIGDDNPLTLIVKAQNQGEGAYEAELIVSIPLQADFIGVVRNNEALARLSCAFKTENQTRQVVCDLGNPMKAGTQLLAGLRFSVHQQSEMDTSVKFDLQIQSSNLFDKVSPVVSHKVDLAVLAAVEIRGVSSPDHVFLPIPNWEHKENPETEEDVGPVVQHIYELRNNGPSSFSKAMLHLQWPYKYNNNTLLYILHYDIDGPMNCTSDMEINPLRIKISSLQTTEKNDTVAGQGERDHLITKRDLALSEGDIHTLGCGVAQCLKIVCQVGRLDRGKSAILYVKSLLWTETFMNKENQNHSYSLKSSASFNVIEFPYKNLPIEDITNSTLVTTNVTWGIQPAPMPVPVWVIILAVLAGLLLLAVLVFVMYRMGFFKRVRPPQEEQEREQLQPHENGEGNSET
Chain of UniProt P06756 (P05556 21-798, chain 2 of 2, further chain): as the sequence (P05556 21-798) above

With 17E6 (antibody) the LTP in the presence of Aβ plus antibody, CA1 in vivo (% baseline) [1] was 135% and the LTP in the presence of Aβ plus antibody, dentate gyrus in vitro (% baseline) [1] was 153%.

With AIIB2 (antibody) the Maximal inhibition of toxicity (%) [2] was 100%.

Gi9 (antibody) was tested, and the Maximal inhibition of toxicity (%) [3] was 100%.

In the case of GoH3 (antibody), the Maximal inhibition of toxicity (%) [4] is reported as 40%.

Laminin (ligand) gave a Maximal inhibition of toxicity (%) [5] of 20%.

Work on P1D6 (antibody) yielded a Maximal inhibition of toxicity (%) [6] of 5%.

With SAM1 (antibody) the Maximal inhibition of toxicity (%) [6] was 5%.

Superfibronectin (ligand) gave an LTP in the presence of Aβ plus superfibronectin, dentate gyrus in vitro (% baseline) [1] of 147% and a Maximal inhibition of toxicity (%) [7] of 100%.

For TS2/7 (antibody), the Maximal inhibition of toxicity (%) [8] was 5%.

In the case of TS2/16 (activating) (antibody), the Maximal inhibition of toxicity (%) [2] is reported as 0%.

With Y9A2 (antibody) the Maximal inhibition of toxicity (%) [9] was 0%.

“echistatin (from UniProt P17347 131-179) (peptide)” was tested, and the LTP in the presence of Aβ plus echistatin, dentate gyrus in vitro (% baseline) [1] was 143%.

B1: MAB1998 (antibody, from another filing, V domains shown)
VH: QVQLKESGPGLVAPSQSLSITCTVSGFSLTNYGIHWVRQPPGKGLEWLGVIWARGFTNYNSALMSRLIITKDNSQSQVFLKMNSLQPDDSATYFCARANDGVYYAMDYWGQGTSVTVSS
VL: QFVLTQSPAFLSASPGEKVTMTCSANSSVNYIHWYQQKSGTSPKKWIYDTSKLASGVPVRFSGSGSGTSYSLTISSMETEDAATYYCQQWTTNPLTFGAGTRVELK
B1 showed a Maximal inhibition of toxicity (%) [3] of 25%.
